T1: mouse tenascin-C rCd4-His-FBG (rat; mouse, UniProt P05540 207-392, limits assumed)
T1 construct: domain: domains 3 and 4; C-terminal FBG fusion; biotinylated in the ELISA screen; also called Mu TNC; mouse TNC rCd4-His-FBG; not shown: 6His tag
T1 sequence (chain (part 1 of 2)): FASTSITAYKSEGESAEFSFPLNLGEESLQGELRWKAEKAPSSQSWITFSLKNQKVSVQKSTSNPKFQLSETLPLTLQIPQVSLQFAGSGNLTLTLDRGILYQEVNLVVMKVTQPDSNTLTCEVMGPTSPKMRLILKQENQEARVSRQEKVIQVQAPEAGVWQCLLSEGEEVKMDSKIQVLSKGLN
T1 sequence (chain (part 2 of 2)): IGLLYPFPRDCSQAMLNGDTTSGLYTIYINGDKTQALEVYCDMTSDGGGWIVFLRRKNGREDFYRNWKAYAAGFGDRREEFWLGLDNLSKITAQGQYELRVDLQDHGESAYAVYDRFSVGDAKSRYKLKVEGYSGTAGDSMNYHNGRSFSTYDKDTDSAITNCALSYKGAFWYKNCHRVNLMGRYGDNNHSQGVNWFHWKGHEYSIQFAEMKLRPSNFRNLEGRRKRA

T2: human tenascin-C rCd4-His-FBG (rat; human, UniProt P05540 207-392, limits assumed)
T2 construct: domain: domains 3 and 4; C-terminal FBG fusion; biotinylated in the ELISA and HTRF screens; also called Hu TNC; human TNC rCd4-His-FBG; not shown: 6His tag
T2 sequence (chain (part 1 of 2)): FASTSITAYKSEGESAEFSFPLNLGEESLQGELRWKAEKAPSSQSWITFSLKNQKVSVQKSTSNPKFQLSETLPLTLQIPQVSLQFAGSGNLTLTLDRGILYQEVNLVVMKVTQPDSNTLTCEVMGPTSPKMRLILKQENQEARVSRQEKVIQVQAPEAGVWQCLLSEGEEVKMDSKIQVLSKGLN
T2 sequence (chain (part 2 of 2)): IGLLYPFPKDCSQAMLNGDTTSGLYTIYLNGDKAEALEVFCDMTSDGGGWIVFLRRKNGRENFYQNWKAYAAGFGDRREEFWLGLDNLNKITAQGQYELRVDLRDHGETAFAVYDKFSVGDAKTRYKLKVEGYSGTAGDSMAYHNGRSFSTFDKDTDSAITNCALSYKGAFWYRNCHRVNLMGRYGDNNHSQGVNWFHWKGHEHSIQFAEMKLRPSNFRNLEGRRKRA


Key:
[1] = biological target: T1, mouse tenascin-C rCd4-His-FBG; test: anti-FLAG capture ELISA, scFv supernatant
[2] = biological target: T2, human tenascin-C rCd4-His-FBG; test: HTRF competition; competitor d2-labelled B12 IgG
Description: All samples and reagents were prepared in assay buffer (50 mM NaPO₄, 0.1% BSA, 0.4 M KF, pH 7.0) at 4× the stated concentration. 5 μl of each reagent was subsequently added to low volume 384-well assay plates (Greiner, 784075) to give a final reaction volume of 20 μl. IgG antibodies were labelled using the d2 labelling kit (CisBio, 62D2DPEA) as directed by the manufacturer. Streptavidin europium cryptate (CisBio, 610SAKLA, Lot#25C) was used at a final concentration of 1.8 ng active moiety (SA) per 20 μl reaction as recommended by the manufacturer. Biotinylated rCd4-His-FBG was prepared using EZ-link Sulfo-NHS-LC-Biotin reagent (Thermo Scientific, 21327) the extent of biotinylation was quantified using biotinylation fluorescence quantitation kit (Thermo Scientific, 46610). Where appropriate, supernatants containing scFv (prepared as described above for ELISA assays) were added to the 384-well assay plate at a final dilution of 1/20 (i.e. 1/5 dilution in assay buffer followed by addition of 5 μl diluted sample to the 20 μl FRET assay). […] Samples were incubated for approximately 1 h at room temperature and the FRET signal was determined using a BMG Pherastar instrument: excitation=320 nm; emission=620 nm and 665 nm; integration start time=60 μs; integration time=500 μs; 100 flashes per well. For competition assays containing culture supernatant, biotinylated rCd4-His-FBG antigen was pre-incubated with streptavidin europium cryptate for 45 min prior to addition of reagents to the assay plate. All FRET signals are presented as ΔR, where R=(E665/E620×104) and ΔR=(Rsample−Rbackground fluorescence).

fold improvement in binding over parent [1] [fold] | % inhibition of FRET signal [2] [%] | Binder
≥ 10 | ≥ 83 | 162_02_F3 scFv (scFv, V domains shown, not shown: small tags and cut ends, E. coli supernatant scFv) VH: EVRLVQSGAEVKKPGASVKVSCKVSGYTLTELSMHWVRQAPGKGLEWMGGFDPEDGETIYAQKFQGRVTMTEDTSTDTAYMELSSLRSEDTAVYYCATAQKETYALTYWGQGTLVTVSS VL: DIQMTQSPASLPTSVGDRVTITCRASQYIQGFLNWYQQKPGKAPRLLIYAASTLQDGVPSRFSGSGYGTDFTLTISSLQPEDFATYYCQNQYRGPWTFGQGTKVEIK
≥ 10 | ≥ 83 | 162_02_C2 scFv (scFv, V domains shown, not shown: small tags and cut ends, E. coli supernatant scFv) VH: EVRLVQSGAEVKKPGASVKVSCKVSGYTLTELSMHWVRQAPGKGLEWMGGFDPEDGETIYAQKFQGRVTMTEDTSTDTAYMELSSLRSEDTAVYYCATAQKETYALTYWGQGTLVTVSS VL: DIQMTQSPASLPTSVGDRVTITCRASQYIQGFLNWYQQKPGKAPRLLIYAASTLQDGVPSRFSGSGYGTDFTLTISSLQPEDFATYYCMHHYRAPWTFGQGTKVEIK
≥ 10 | ≥ 90 | 161_01_A12 scFv (scFv, V domains shown, not shown: small tags and cut ends, E. coli supernatant scFv) VH: EVRLVQSGAEVKKPGASVKVSCKVSGYTLTELSMHWVRQAPGKGLEWMGGFDPEDGETIYAQKFQGRVTMTEDTSTDTAYMELSSLRSEDTAVYYCATAQPTALANTYWGQGTLVTVSS VL: DIQMTQSPASLPTSVGDRVTITCRASQYIQGFLNWYQQKPGKAPRLLIYAASTLQDGVPSRFSGSGYGTDFTLTISSLQPEDFATYYCQQSYSTPWTFGQGTKVEIK
≥ 10 | ≥ 90 | 161_01_C11 scFv (scFv, V domains shown, not shown: small tags and cut ends, E. coli supernatant scFv) VH: EVRLVQSGAEVKKPGASVKVSCKVSGYTLTELSMHWVRQAPGKGLEWMGGFDPEDGETIYAQKFQGRVTMTEDTSTDTAYMELSSLRSEDTAVYYCATAQKEWLPDVTWGQGTLVTVSS VL: DIQMTQSPASLPTSVGDRVTITCRASQYIQGFLNWYQQKPGKAPRLLIYAASTLQDGVPSRFSGSGYGTDFTLTISSLQPEDFATYYCQQSYSTPWTFGQGTKVEIK
≥ 10 | ≥ 83 | 162_02_C6 scFv (scFv, V domains shown, not shown: small tags and cut ends, E. coli supernatant scFv) VH: EVRLVQSGAEVKKPGASVKVSCKVSGYTLTELSMHWVRQAPGKGLEWMGGFDPEDGETIYAQKFQGRVTMTEDTSTDTAYMELSSLRSEDTAVYYCATAQKETYALTYWGQGTLVTVSS VL: DIQMTQSPASLPTSVGDRVTITCRASQYIQGFLNWYQQKPGKAPRLLIYAASTLQDGVPSRFSGSGYGTDFTLTISSLQPEDFATYYCQNQYAGPWTFGQGTKVEIK
≥ 10 | ≥ 83 | 162_02_C1 scFv (scFv, V domains shown, not shown: small tags and cut ends, E. coli supernatant scFv) VH: EVRLVQSGAEVKKPGASVKVSCKVSGYTLTELSMHWVRQAPGKGLEWMGGFDPEDGETIYAQKFQGRVTMTEDTSTDTAYMELSSLRSEDTAVYYCATAQKETYALTYWGQGTLVTVSS VL: DIQMTQSPASLPTSVGDRVTITCRASQYIQGFLNWYQQKPGKAPRLLIYAASTLQDGVPSRFSGSGYGTDFTLTISSLQPEDFATYYCLHHYRAPWTFGQGTKVEIK
≥ 10 | ≥ 90 | 160_01_G2 scFv (scFv, V domains shown, not shown: small tags and cut ends, E. coli supernatant scFv) VH: EVRLVQSGAEVKKPGASVKVSCKVSGYTLTELSMHWVRQAPGKGLEWMGGFDPEDGETIYAQKFQGRVTMTEDTSTDTAYMELSSLRSEDTAVYYCATYTLDNMALTYWGQGTLVTVSS VL: DIQMTQSPASLPTSVGDRVTITCRASQYIQGFLNWYQQKPGKAPRLLIYAASTLQDGVPSRFSGSGYGTDFTLTISSLQPEDFATYYCQQSYSTPWTFGQGTKVEIK
≥ 10 | ≥ 90 | 160_01_A4 scFv (scFv, V domains shown, not shown: small tags and cut ends, E. coli supernatant scFv) VH: EVRLVQSGAEVKKPGASVKVSCKVSGYTLTELSMHWVRQAPGKGLEWMGGFDPEDGETIYAQKFQGRVTMTEDTSTDTAYMELSSLRSEDTAVYYCATAQKETLGNAIWGQGTLVTVSS VL: DIQMTQSPASLPTSVGDRVTITCRASQYIQGFLNWYQQKPGKAPRLLIYAASTLQDGVPSRFSGSGYGTDFTLTISSLQPEDFATYYCQQSYSTPWTFGQGTKVEIK
≥ 10 | ≥ 90 | 160_01_H4 scFv (scFv, V domains shown, not shown: small tags and cut ends, E. coli supernatant scFv) VH: EVRLVQSGAEVKKPGASVKVSCKVSGYTLTELSMHWVRQAPGKGLEWMGGFDPEDGETIYAQKFQGRVTMTEDTSTDTAYMELSSLRSEDTAVYYCATGRFVWEALTYWGQGTLVTVSS VL: DIQMTQSPASLPTSVGDRVTITCRASQYIQGFLNWYQQKPGKAPRLLIYAASTLQDGVPSRFSGSGYGTDFTLTISSLQPEDFATYYCQQSYSTPWTFGQGTKVEIK
≥ 10 | ≥ 90 | 161_01_C09 scFv (scFv, V domains shown, not shown: small tags and cut ends, E. coli supernatant scFv) VH: EVRLVQSGAEVKKPGASVKVSCKVSGYTLTELSMHWVRQAPGKGLEWMGGFDPEDGETIYAQKFQGRVTMTEDTSTDTAYMELSSLRSEDTAVYYCATAQLPYLAQTYWGQGTLVTVSS VL: DIQMTQSPASLPTSVGDRVTITCRASQYIQGFLNWYQQKPGKAPRLLIYAASTLQDGVPSRFSGSGYGTDFTLTISSLQPEDFATYYCQQSYSTPWTFGQGTKVEIK
≥ 10 | ≥ 90 | 161_01_F6 scFv (scFv, V domains shown, not shown: small tags and cut ends, E. coli supernatant scFv; also called 160_01_F6) VH: EVRLVQSGAEVKKPGASVKVSCKVSGYTLTELSMHWVRQAPGKGLEWMGGFDPEDGETIYAQKFQGRVTMTEDTSTDTAYMELSSLRSEDTAVYYCATAQKENIANRHWGQGTLVTVSS VL: DIQMTQSPASLPTSVGDRVTITCRASQYIQGFLNWYQQKPGKAPRLLIYAASTLQDGVPSRFSGSGYGTDFTLTISSLQPEDFATYYCQQSYSTPWTFGQGTKVEIK
≥ 10 | ≥ 83 | 162_02_F4 scFv (scFv, V domains shown, not shown: small tags and cut ends, E. coli supernatant scFv) VH: EVRLVQSGAEVKKPGASVKVSCKVSGYTLTELSMHWVRQAPGKGLEWMGGFDPEDGETIYAQKFQGRVTMTEDTSTDTAYMELSSLRSEDTAVYYCATAQKETYALTYWGQGTLVTVSS VL: DIQMTQSPASLPTSVGDRVTITCRASQYIQGFLNWYQQKPGKAPRLLIYAASTLQDGVPSRFSGSGYGTDFTLTISSLQPEDFATYYCMHHYRSPWTFGQGTKVEIK
≥ 10 | ≥ 90 | 162_02_D3 scFv (scFv, V domains shown, not shown: small tags and cut ends, E. coli supernatant scFv) VH: EVRLVQSGAEVKKPGASVKVSCKVSGYTLTELSMHWVRQAPGKGLEWMGGFDPEDGETIYAQKFQGRVTMTEDTSTDTAYMELSSLRSEDTAVYYCATAQIHPLGLTYWGQGTLVTVSS VL: DIQMTQSPASLPTSVGDRVTITCRASQYIQGFLNWYQQKPGKAPRLLIYAASTLQDGVPSRFSGSGYGTDFTLTISSLQPEDFATYYCQQSYSTPWTFGQGTKVEIK
≥ 10 | ≥ 90 | 161_01_H10 scFv (scFv, V domains shown, not shown: small tags and cut ends, E. coli supernatant scFv) VH: EVRLVQSGAEVKKPGASVKVSCKVSGYTLTELSMHWVRQAPGKGLEWMGGFDPEDGETIYAQKFQGRVTMTEDTSTDTAYMELSSLRSEDTAVYYCATAQPVWAPGTYWGQGTLVTVSS VL: DIQMTQSPASLPTSVGDRVTITCRASQYIQGFLNWYQQKPGKAPRLLIYAASTLQDGVPSRFSGSGYGTDFTLTISSLQPEDFATYYCQQSYSTPWTFGQGTKVEIK
≥ 10 | ≥ 90 | 160_01_F1 scFv (scFv, V domains shown, not shown: small tags and cut ends, E. coli supernatant scFv) VH: EVRLVQSGAEVKKPGASVKVSCKVSGYTLTELSMHWVRQAPGKGLEWMGGFDPEDGETIYAQKFQGRVTMTEDTSTDTAYMELSSLRSEDTAVYYCATAQSPWSGMTYWGQGTLVTVSS VL: DIQMTQSPASLPTSVGDRVTITCRASQYIQGFLNWYQQKPGKAPRLLIYAASTLQDGVPSRFSGSGYGTDFTLTISSLQPEDFATYYCQQSYSTPWTFGQGTKVEIK

— patent publication US20170306005A1 (NASCIENT, published 2017)
